{"source": "paper PMC4936022", "about": "“Epigenetic silencing of serine protease HTRA1 drives polyploidy”", "binders": {"B1": {"name": "HTRA1 promoter 12-mer, methylated (dsDNA)", "DNA 1": "CTCAGCGAGAGA", "DNA 2": "TCTCTCGCTGAG", "modifications": "5-methyl-dC at position 6 of the reverse strand (TCTCT-5mC-GCTGAG); forward-strand methylation not visible in the material (line truncated), probably 5mC at position 6"}, "B2": {"name": "HTRA1 promoter 12-mer, unmethylated (dsDNA)", "DNA 1": "CTCAGCGAGAGA", "DNA 2": "TCTCTCGCTGAG"}}, "key": {"[1]": {"target": "T1, MBD2b (MBD2 lacking the N-terminal 149 residues) (UniProt Q9UBB5 150-411)", "T1 sequence (Q9UBB5 150-411)": "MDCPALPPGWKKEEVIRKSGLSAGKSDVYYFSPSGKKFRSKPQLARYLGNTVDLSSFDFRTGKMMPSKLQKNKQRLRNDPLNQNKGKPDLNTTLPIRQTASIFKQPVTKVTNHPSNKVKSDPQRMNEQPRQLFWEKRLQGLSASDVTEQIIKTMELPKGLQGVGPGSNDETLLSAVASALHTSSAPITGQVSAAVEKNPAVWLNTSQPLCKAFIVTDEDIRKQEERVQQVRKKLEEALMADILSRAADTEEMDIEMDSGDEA", "experiment": "EMSA; 70 pmol each, equimolar; 5 mM Mg2+; 1:1 stoichiometry; EMSA: 50 mM Tris, 5 mM MgCl2, 10 mM DTT, pH 7.5, 5 min, RT, 10 ul, 12% gel, ethidium bromide; protease protection: 50 mM Tris, 5 mM MgCl2, pH 7.5, 10 min RT with DNA, then trypsin 20 min 37 C", "conditions": "protein: recombinant; tags: 6His; label: none (ethidium bromide stain); blunt"}, "[2]": {"target": "T1, MBD2b (MBD2 lacking the N-terminal 149 …)", "experiment": "EMSA; 70 pmol each, equimolar; 5 mM Mg2+; EMSA: 50 mM Tris, 5 mM MgCl2, 10 mM DTT, pH 7.5, 5 min, RT, 10 ul, 12% gel, ethidium bromide; protease protection: 50 mM Tris, 5 mM MgCl2, pH 7.5, 10 min RT with DNA, then trypsin 20 min 37 C", "conditions": "protein: recombinant; tags: 6His; label: none (ethidium bromide stain); blunt"}}, "data": [{"binder": "B1", "values": [{"measurement": "binding result", "setting": "[1]", "value": "binds"}]}, {"binder": "B2", "values": [{"measurement": "binding result", "setting": "[2]", "value": "no binding"}]}]}
